Assay results as given in paper PMC8513821 (Nature, 2021).

Biological target: the molecule itself
Assay: single-molecule photobleaching step counting

B1: HCN1SM (human HCN1 with amino acids 636-865 deleted, N-terminal Twin-strep tag and eGFP) (complex, UniProt O60741 1-890, looked up)
chain: MEGGGKPNSSSNSRDDGNSVFPAKASATGAGPAAAEKRLGTPPGGGGAGAKEHGNSVCFKVDGGGGGGGGGGGGEEPAGGFEDAEGPRRQYGFMQRQFTSMLQPGVNKFSLRMFGSQKAVEKEQERVKTAGFWIIHPYSDFRFYWDLIMLIMMVGNLVIIPVGITFFTEQTTTPWIIFNVASDTVFLLDLIMNFRTGTVNEDSSEIILDPKVIKMNYLKSWFVVDFISSIPVDYIFLIVEKGMDSEVYKTARALRIVRFTKILSLLRLLRLSRLIRYIHQWEEIFHMTYDLASAVVRIFNLIGMMLLLCHWDGCLQFLVPLLQDFPPDCWVSLNEMVNDSWGKQYSYALFKAMSHMLCIGYGAQAPVSMSDLWITMLSMIVGATCYAMFVGHATALIQSLDSSRRQYQEKYKQVEQYMSFHKLPADMRQKIHDYYEHRYQGKIFDEENILNELNDPLREEIVNFNCRKLVATMPLFANADPNFVTAMLSKLRFEVFQPGDYIIREGAVGKKMYFIQHGVAGVITKSSKEMKLTDGSYFGEICLLTKGRRTASVRADTYCRLYSLSVDNFNEVLEEYPMMRRAFETVAIDRLDRIGKKNSILLQKFQKDLNTGVFNNQENEILKQIVKHDREMVQAALPRESSSVLNTDPDAEKPRFASNL
With B1 the “stoichiometry N” value was 4.
